# Source: ChEMBL document CHEMBL1128006, “Solid phase synthesis of trypanothione disulfide” (Bioorg Med Chem Lett, 1994)
# B1: Trypanothione reductase (Trypanosoma cruzi), P28593 (protein)
# chain: MMSKIFDLVVIGAGSGGLEAAWNAATLYKKRVAVIDVQMVHGPPFFSALGGTCVNVGCVPKKLMVTGAQYMEHLRESAGFGWEFDRTTLRAEWKKLIAVKDEAVLNINKSYEEMFRDTEGLEFFLGWGSLESKNVVNVRESADPASAVKERLETENILLASGSWPHMPNIPGIEHCISSNEAFYLPEPPRRVLTVGGGFISVEFAGIFNAYKPKDGQVTLCYRGEMILRGFDHTLREELTKQLTANGIQILTKENPAKVELNADGSKSVTFESGKKMDFDLVMMAIGRSPRTKDLQLQNAGVMIKNGGVQVDEYSRTNVSNIYAIGDVTNRVMLTPVAINEAAALVDTVFGTNPRKTDHTRVASAVFSIPPIGTCGLIEEVASKRYEVVAVYLSSFTPLMHNISGSKYKTFVAKIITNHSDGTVLGVHLLGDNAPEIIQGVGICLKLNAKISDFYNTIGVHPTSAEELCSMRTPSYYYVKGEKMEKPSEASL
# Compound: NC(CCC(=O)NC1CSSCC(NC(=O)CCC(N)C(=O)O)C(=O)NCC(=O)NCCCNCCCCNC(=O)CNC1=O)C(=O)O
# Test: Inhibitory activity against recombinant Trypanothione reductase from Trypanosoma cruzi
protein,measurement,value
B1,Km,50 µM
